Test results from US20190276551A1 (UNIVERSITY MEDICAL CENTER HAMBURG EPPENDORF, published 2019).

Target: T1, human CD38 on cells (human, UniProt P28907 1-300)
T1 construct: also called native CD38; CD38 on LP-1 myeloma cells, CD38-transfected NIH-3T3 cells, blood leukocytes, CD38-transfected DC27.10 cells
Test: flow cytometry on human blood, bound VHH detected with FITC anti-c-myc 9E10, MFI of CD3-negative lymphocytes
Description: 50 μl samples of human blood were incubated with serially titrated, purified monovalent Nanobodies for 30 min at RT. Cells were washed twice and bound Nbs were detected with FITC-conjugated anti-c-myc (9E10). T cells were stained with APC-conjugated anti-CD3. Erythrocytes were lysed and cells were analyzed by flow cytometry. Gating was performed on lymphocytes and CD3-negative cells.
Next, purified monovalent anti-CD38 VHH were analysed for binding to native CD38 on the cell surface of peripheral blood leukocytes (PBMCs) by flow cytometry. […] After washing the cells and lysis of erythrocytes by lysis buffer, binding was examined by flow cytometry. […] As positive control, a FITC-labelled monoclonal antibody against CD38 (anti-human CD38-FITC, IA10, BD Biosciences) was used. The lymphocytes were defined on forward and side scattered light. Using the Flowio software the mean fluorescence intensity (MFI) of the CD3-negative cell population was calculated.

Row | Binder | EC50 (read off the curve) [nM] | binding result
1 | MU1053 (VHH, also called L-15.3; I-15.3a) VHH: DVQLQESGGGLVQAGGSLRLSCTGSGRTFRNYPMAWFRQAPGKEREFVAGITWVGASTLYADFAKGRFTISRDNAKNTVYLQMNSLKPEDTAVYSCAAGRGIVAGRIPAEYADWGQGTQVTVSS | ~0.1 | –
2 | MU725 (VHH, His6-Myc-tagged monovalent VHH; also called family 22) VHH: DVQLQESGGGLVQAGGSLRLSCAASGFTFDDYVIGWFRQAPGKEREGVSSISNNNSTYYADSVKGRFTIASDNAKNTVYLQMNSLKPEDTAVYYCAADVTLNPFTGWNTRSGPMYRYEYDYWGQGTQVTVSS | – | binds
3 | MU737 (VHH, His6-Myc-tagged monovalent VHH; also called s-14.1c; family 9) VHH: DVQLQASGGGLVQAGGSLRLSCAGSGRSFSSYAMGWFRQAPGKAREIVATITRSGGSTNYAVPVKGRFTISRDNAKNTVYLQMSSLKPEDTAVYYCAADRFAVASGTHDLDYWGQGTQVTVSS | – | binds
